Key:
[1] = target: Mycobacterium tuberculosis Biotin Protein Ligase (Mycobacterium tuberculosis) (UniProt I6YFP0)
[2] = target: T1, Biotin Protein Ligase (MtBPL) (Mycobacterium tuberculosis, UniProt I6YFP0); assay: ITC (VP-ITC, […]°C); type: binding
T1 construct: gene birA; 266 amino acids, hexahistidine tag at N-terminus
T1 sequence (I6YFP0 whole entry, looked up): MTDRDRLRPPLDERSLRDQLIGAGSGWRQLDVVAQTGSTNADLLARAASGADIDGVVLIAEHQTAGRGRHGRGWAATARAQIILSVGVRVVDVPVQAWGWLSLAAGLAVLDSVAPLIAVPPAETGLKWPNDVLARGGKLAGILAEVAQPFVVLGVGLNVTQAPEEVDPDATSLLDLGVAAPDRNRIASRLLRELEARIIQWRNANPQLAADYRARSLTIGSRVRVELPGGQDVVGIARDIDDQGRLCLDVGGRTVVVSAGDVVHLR

Mycobacterium tuberculosis Biotin Protein Ligase (Mycobacterium tuberculosis), sequence (I6YFP0 whole entry): as the sequence (I6YFP0 whole entry, looked up) above

| Compound | Km for BCCP in the MtBPL catalysed incorporation of [14C]-biotin into BCCP (steady state kinetics, Michaelis-Menten fit) [1] | Kd [2] |
| --- | --- | --- |
| biotin carboxyl carrier protein (BCCP) domain of M. tuberculosis acetyl CoA carboxylase (domain or fragment) | 5.2 µM |  |
| Nc1ncnc2c1ncn2[C@@H]1O[C@H](COP(=O)(O)OC(=O)CCCC[C@@H]2SC[C@@H]3NC(=O)N[C@@H]32)[C@@H](O)[C@H]1O [bio-5′-AMP] |  | 1.36 µM |

Source: paper PMC2384007 (PLoS ONE, 2008)
